Measured values: patent US20180117174A1 (GANYMED PHARMACEUTICALS, published 2018)

Experiments:
[1] = biological target: human claudin 18 splice variant 2 (CLDN18.2) (human); assay: cell-based or functional assay
[2] = biological target: T1, human claudin 18 splice variant 2 (CLDN18.2) (human); assay: flow cytometry on NUGC-4 10cE8 cells (endogenous CLDN18.2), second assay
T1 construct: also called claudin 18 isotype 2

[3] = biological target: T1, human claudin 18 splice variant 2 …; assay: flow cytometry on HEK293~CLDN18.2 cells, antibody up to 20 µg/ml
Procedure: Binding was analyzed by flow cytometry at antibody concentrations up to 20 μg/ml. Data points (n=2 replicates) are depicted as mean±SD.
(§1) 100 μl of the cell suspension per well (correspond to 2×10⁵ cells/well) were transferred to a round bottom 96-well microtiter plate. […] The cells were centrifuged for 1 min at 1500 rpm and the supernatant was discarded. […] After incubation, 100 μl FACS buffer were added to each sample, the cells were centrifuged for 1 min at 1500 rpm and the supernatant was discarded. The washing step with FACS buffer was repeated twice. Finally, the cells were resuspended in 100 μl FACS buffer and binding was determined using a BD FACS Array Bioanalyzer.
The binding specificity was analyzed by flow cytometry using HEK293 transfectants engineered to overexpress human CLDN18.2 or the highly homologous protein human CLDN18.1.

[4] = biological target: T1, human claudin 18 splice variant 2 …; assay: flow cytometry on NCI-N87~CLDN18.2 cells, antibody up to 20 µg/ml
Procedure: as §1

[5] = biological target: T1, human claudin 18 splice variant 2 …; assay: flow cytometry on BxPC-3~CLDN18.2 cells, second assay
[6] = biological target: T1, human claudin 18 splice variant 2 …; assay: cell-based or functional assay; remark: listed apart in the source
[7] = biological target: T1, human claudin 18 splice variant 2 …; assay: flow cytometry, HEK293 cells stably expressing CLDN18.2; APC-conjugated secondary antibody; binding assay 2
[8] = biological target: T1, human claudin 18 splice variant 2 …; assay: flow cytometry on NUGC-4 10cF7-5 sort 3a cells (endogenous CLDN18.2), second assay
[9] = biological target: T1, human claudin 18 splice variant 2 …; assay: flow cytometry, HEK293 cells stably expressing CLDN18.2; APC-conjugated secondary antibody; binding assay 3
Procedure: as §1

[10] = biological target: T1, human claudin 18 splice variant 2 …; assay: flow cytometry, HEK293 cells stably expressing CLDN18.2; ProteinL-FITC detection; binding assay 4
[11] = biological target: T1, human claudin 18 splice variant 2 …; assay: cell-based or functional assay; remark: listed apart in the source
[12] = biological target: T1, human claudin 18 splice variant 2 …; assay: flow cytometry (Table 6); APC-conjugated secondary antibody; binding assay 1
Procedure: as §1
(§2) Antibodies marked with the same number (1 or 2) were tested in the same binding assay.

[13] = biological target: T1, human claudin 18 splice variant 2 …; assay: flow cytometry, HEK293 cells stably expressing CLDN18.2; APC-conjugated secondary antibody; binding assay 1
[14] = biological target: T1, human claudin 18 splice variant 2 …; assay: flow cytometry (Table 6); ProteinL-FITC detection; binding assay 2
Procedure: as §1, §2

[15] = biological target: T1, human claudin 18 splice variant 2 …; assay: flow cytometry on BxPC-3~CLDN18.2 cells, antibody up to 20 µg/ml
Procedure: as §1

B1: IMAB362 (antibody, V domains shown)
VH: QVQLQQPGAELVRPGASVKLSCKASGYTFTSYWINWVKQRPGQGLEWIGNIYPSDSYTNYNQKFKDKATLTVDKSSSTAYMQLSSPTSEDSAVYYCTRSWRGNSFDYWGQGTTLTVSS
VL: DIVMTQSPSSLTVTAGEKVTMSCKSSQSLLNSGNQKNYLTWYQQKPGQPPKLLIYWASTRESGVPDRFTGSGSGTDFTLTISSVQAEDLAVYYCQNDYSYPFTFGSGTKLEIKR
notes: Chimeric human IgG1 kappa; CDR1 at 45-52); also called chim mAb362; chim mAB362
B1 was tested, and the “CDC EC50 [ng/ml], KATO-III FGF-BP#12 adM p3151#25 cells” value [1] was 19300 ng/mL, the “CDC EC50 [ng/ml], NUGC-4 10cF7_5 sort3a p3151#10 cells” value [1] was 28000 ng/mL and the EC50 [2] was 3.67 µg/mL. It also gave an EC50 [3] of 1.12 µg/mL, an EC50 [4] of 0.31 µg/mL and an EC50 [5] of 0.113 µg/mL. The “ADCC EC50 [ng/ml], NUGC-4 10cF7_5 sort3a p3151#10 cells, PBMC of Donor 1” value [6] was 1230 ng/mL, the “ADCC EC50 [ng/ml], NUGC-4 10cF7_5 sort3a p3151#10 cells, PBMC of Donor 2” value [6] was 142 ng/mL and the EC50 [7] was 0.584 µg/mL. For the same binder, the EC50 [8] was 2.38 µg/mL, the EC50 [9] was 0.652 µg/mL and the “Max. binding [MFI]” value [9] was 7950 MFI. For the same binder, the EC50 [10] was 1.24 µg/mL, the “Max. binding [MFI]” value [10] was 5320 MFI and the “Cell viability EC50 [ng/ml], Fab-ZAP endocytosis assay on HEK293~CLDN18.2 cells” value [11] was 11 ng/mL. The “Cell viability EC50 [ng/ml], Fab-ZAP endocytosis assay on HEK293~CLDN18.2 cells (second assay)” value [11] was 13 ng/mL, the EC50 [12] was 0.584 µg/mL and the “Max. binding [MFI]” value [12] was 18500 MFI. It also gave an EC50 [13] of 0.52 µg/mL, an EC50 [14] of 1.24 µg/mL and an EC50 [15] of 0.104 µg/mL.
